According to patent US20180125988A1, “TARGETED XTEN CONJUGATE COMPOSITIONS AND METHODS OF MAKING SAME” (AMUNIX OPERATING INC., priority 2014, published 2018):

T1: human neutrophil elastase (Homo sapiens, UniProt P08246)
T1 construct: purchased R&D Systems
T1 sequence (P08246 30-267): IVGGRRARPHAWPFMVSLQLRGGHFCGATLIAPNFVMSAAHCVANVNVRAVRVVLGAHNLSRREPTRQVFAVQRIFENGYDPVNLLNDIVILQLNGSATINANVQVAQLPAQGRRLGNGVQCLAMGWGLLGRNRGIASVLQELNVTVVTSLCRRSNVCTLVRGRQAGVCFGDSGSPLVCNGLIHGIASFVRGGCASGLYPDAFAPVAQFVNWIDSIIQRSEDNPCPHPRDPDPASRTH

B1: XTEN_AG864: extended recombinant polypeptide of 864 amino acids, AG motif family (protein)
chain: GASPGTSSTGSPGSSPSASTGTGPGSSPSASTGTGPGTPGSGTASSSPGSSTPSGATGSPGSSPSASTGTGPGASPGTSSTGSPGTPGSGTASSSPGSSTPSGATGSPGTPGSGTASSSPGASPGTSSTGSPGASPGTSSTGSPGTPGSGTASSSPGSSTPSGATGSPGASPGTSSTGSPGTPGSGTASSSPGSSTPSGATGSPGSSPSASTGTGPGSSPSASTGTGPGSSTPSGATGSPGSSTPSGATGSPGASPGTSSTGSPGASPGTSSTGSPGASPGTSSTGSPGTPGSGTASSSPGASPGTSSTGSPGASPGTSSTGSPGASPGTSSTGSPGSSPSASTGTGPGTPGSGTASSSPGASPGTSSTGSPGASPGTSSTGSPGASPGTSSTGSPGSSTPSGATGSPGSSTPSGATGSPGASPGTSSTGSPGTPGSGTASSSPGSSTPSGATGSPGSSTPSGATGSPGSSTPSGATGSPGSSPSASTGTGPGASPGTSSTGSPGASPGTSSTGSPGTPGSGTASSSPGASPGTSSTGSPGASPGTSSTGSPGASPGTSSTGSPGASPGTSSTGSPGTPGSGTASSSPGSSTPSGATGSPGTPGSGTASSSPGSSTPSGATGSPGTPGSGTASSSPGSSTPSGATGSPGSSTPSGATGSPGSSPSASTGTGPGSSPSASTGTGPGASPGTSSTGSPGTPGSGTASSSPGSSTPSGATGSPGSSPSASTGTGPGSSPSASTGTGPGASPGTSSTGSPGASPGTSSTGSPGSSTPSGATGSPGSSPSASTGTGPGASPGTSSTGSPGSSPSASTGTGPGTPGSGTASSSPGSSTPSGATGSPGSSTPSGATGSPGASPGTSSTGSP
modifications: conjugated
notes: extended recombinant polypeptide of 864 amino acids, AG motif family
B2: XTEN_AE864: extended recombinant polypeptide of 864 amino acids, AE motif family (protein)
chain: GSPAGSPTSTEEGTSESATPESGPGTSTEPSEGSAPGSPAGSPTSTEEGTSTEPSEGSAPGTSTEPSEGSAPGTSESATPESGPGSEPATSGSETPGSEPATSGSETPGSPAGSPTSTEEGTSESATPESGPGTSTEPSEGSAPGTSTEPSEGSAPGSPAGSPTSTEEGTSTEPSEGSAPGTSTEPSEGSAPGTSESATPESGPGTSTEPSEGSAPGTSESATPESGPGSEPATSGSETPGTSTEPSEGSAPGTSTEPSEGSAPGTSESATPESGPGTSESATPESGPGSPAGSPTSTEEGTSESATPESGPGSEPATSGSETPGTSESATPESGPGTSTEPSEGSAPGTSTEPSEGSAPGTSTEPSEGSAPGTSTEPSEGSAPGTSTEPSEGSAPGTSTEPSEGSAPGSPAGSPTSTEEGTSTEPSEGSAPGTSESATPESGPGSEPATSGSETPGTSESATPESGPGSEPATSGSETPGTSESATPESGPGTSTEPSEGSAPGTSESATPESGPGSPAGSPTSTEEGSPAGSPTSTEEGSPAGSPTSTEEGTSESATPESGPGTSTEPSEGSAPGTSESATPESGPGSEPATSGSETPGTSESATPESGPGSEPATSGSETPGTSESATPESGPGTSTEPSEGSAPGSPAGSPTSTEEGTSESATPESGPGSEPATSGSETPGTSESATPESGPGSPAGSPTSTEEGSPAGSPTSTEEGTSTEPSEGSAPGTSESATPESGPGTSESATPESGPGTSESATPESGPGSEPATSGSETPGSEPATSGSETPGSPAGSPTSTEEGTSTEPSEGSAPGTSTEPSEGSAPGSEPATSGSETPGTSESATPESGPGTSTEPSEGSAP
modifications: conjugated
notes: extended recombinant polypeptide of 864 amino acids, AE motif family
B3: AC398: fusion protein of FVII with AE288 (protein)
chain: AVFVTQEEAHGVLHRRRRANAFLEELRPGSLERECKEEQCSFEEAREIFKDAERTKLFWISYSDGDQCASSPCQNGGSCKDQLQSYICFCLPAFEGRNCETHKDDQLICVNENGGCEQYCSDHTGTKRSCRCHEGYSLLADGVSCTPTVEYPCGKIPILEKRNASKPQGRIVGGKVCPKGECPWQVLLLVNGAQLCGGTLINTIWVVSAAHCFDKIKNWRNLIAVLGEHDLSEHDGDEQSRRVAQVIIPSTYVPGTTNHDIALLRLHQPVVLTDHVVPLCLPERTFSERTLAFVRFSLVSGWGQLLDRGATALELMVLNVPRLMTQDCLQQSRKVGDSPNITEYMFCAGYSDGSKDSCKGDSGGPHATHYRGTWYLTGIVSWGQGCATVGHFGVYTRVSQYIEWLQKLMRSEPRPGVLLRAPFPGSPGTSESATPESGPGSEPATSGSETPGTSESATPESGPGSEPATSGSETPGTSESATPESGPGTSTEPSEGSAPGSPAGSPTSTEEGTSESATPESGPGSEPATSGSETPGTSESATPESGPGSPAGSPTSTEEGSPAGSPTSTEEGTSTEPSEGSAPGTSESATPESGPGTSESATPESGPGTSESATPESGPGSEPATSGSETPGSEPATSGSETPGSPAGSPTSTEEGTSTEPSEGSAPGTSTEPSEGSAPGSEPATSGSETPGTSESATPESGPGTSTEPSEGSAPGSSS
B4: AC404: fusion protein of FVII with AE864 (protein)
chain: AVFVTQEEAHGVLHRRRRANAFLEELRPGSLERECKEEQCSFEEAREIFKDAERTKLFWISYSDGDQCASSPCQNGGSCKDQLQSYICFCLPAFEGRNCETHKDDQLICVNENGGCEQYCSDHTGTKRSCRCHEGYSLLADGVSCTPTVEYPCGKIPILEKRNASKPQGRIVGGKVCPKGECPWQVLLLVNGAQLCGGTLINTIWVVSAAHCFDKIKNWRNLIAVLGEHDLSEHDGDEQSRRVAQVIIPSTYVPGTTNHDIALLRLHQPVVLTDHVVPLCLPERTFSERTLAFVRFSLVSGWGQLLDRGATALELMVLNVPRLMTQDCLQQSRKVGDSPNITEYMFCAGYSDGSKDSCKGDSGGPHATHYRGTWYLTGIVSWGQGCATVGHFGVYTRVSQYIEWLQKLMRSEPRPGVLLRAPFPGSPGSPAGSPTSTEEGTSESATPESGPGTSTEPSEGSAPGSPAGSPTSTEEGTSTEPSEGSAPGTSTEPSEGSAPGTSESATPESGPGSEPATSGSETPGSEPATSGSETPGSPAGSPTSTEEGTSESATPESGPGTSTEPSEGSAPGTSTEPSEGSAPGSPAGSPTSTEEGTSTEPSEGSAPGTSTEPSEGSAPGTSESATPESGPGTSTEPSEGSAPGTSESATPESGPGSEPATSGSETPGTSTEPSEGSAPGTSTEPSEGSAPGTSESATPESGPGTSESATPESGPGSPAGSPTSTEEGTSESATPESGPGSEPATSGSETPGTSESATPESGPGTSTEPSEGSAPGTSTEPSEGSAPGTSTEPSEGSAPGTSTEPSEGSAPGTSTEPSEGSAPGTSTEPSEGSAPGSPAGSPTSTEEGTSTEPSEGSAPGTSESATPESGPGSEPATSGSETPGTSESATPESGPGSEPATSGSETPGTSESATPESGPGTSTEPSEGSAPGTSESATPESGPGSPAGSPTSTEEGSPAGSPTSTEEGSPAGSPTSTEEGTSESATPESGPGTSTEPSEGSAPGTSESATPESGPGSEPATSGSETPGTSESATPESGPGSEPATSGSETPGTSESATPESGPGTSTEPSEGSAPGSPAGSPTSTEEGTSESATPESGPGSEPATSGSETPGTSESATPESGPGSPAGSPTSTEEGSPAGSPTSTEEGTSTEPSEGSAPGTSESATPESGPGTSESATPESGPGTSESATPESGPGSEPATSGSETPGSEPATSGSETPGSPAGSPTSTEEGTSTEPSEGSAPGTSTEPSEGSAPGSEPATSGSETPGTSESATPESGPGTSTEPSEGSAPGSSS

Tests used:
[1] = Half-life of XTEN_AG864 in cynomolgus monkeys; type: in vivo
Source text: The methods and materials utilized were adapted from those of Example 1, above.

[2] = molecular target: T1, human neutrophil elastase; experiment: Neutrophil elastase digestion of XTEN_AE864 (SDS-PAGE); type: biochemical; settings: 10 μM XTEN, 37° C., 2 hours
Protocol: It had been speculated that neutrophil elastase, a serine protease with broad substrate specificity, may be able to degrade XTEN. […] 10 μM of purified XTEN_AE864 was incubated with 1:1000 or 1:100 molar ratio (elastase:XTEN) of human neutrophil elastase (R&D Systems) at 37° C. for 2 hours. Samples before and after digestion were analyzed on SDS-PAGE gel followed with coomassie staining (FIG. 86).

[3] = Biodegradation of XTEN in rat plasma, rat kidney homogenate and PBS buffer (SDS-PAGE); type: in vitro ADME; settings: 0.3 mg/ml
Protocol: Purified XTEN_AE864 protein was incubated at a final concentration of 0.3 mg/ml in rat plasma (Bioreclamation IVT, Baltimore, Md.), rat kidney homogenate (Bioreclamation), or PBS buffer for up to 7 days at 37° C. Samples were withdrawn at time 0, 4 hours, 24 hours, and 7 days, were immediately frozen and stored at -80° C., then thawed right before analysis. XTEN was extracted from the samples by methanol precipitation. Briefly, methanol pre-chilled at −20° C. was added to the samples at a volume ratio of 2:1 and mixed by vortex. The mixture was kept at −20° C. for 30 min and then centrifuged at 14,000 rpm for 20 min at 8° C. The supernatant was subjected to centrifugal evaporation for 1-2 hours to take the sample to complete dryness, and was then resuspended in PBS buffer to the original volume before methanol extraction. The reconstituted samples were analyzed by SDS-PAGE with staining using Stains-all.

[4] = Analytical size exclusion chromatography of XTEN fusion proteins; type: physicochemical; settings: for RH (nm), hydrodynamic radius / Apparent MW (kDa): SEC; for Apparent MW (kDa): BioRad calibration standard; for Apparent Molecular Weight Factor: ratio of apparent molecular weight to calculated molecular weight

Molecule	RH (nm), hydrodynamic radius [4] [nm]	Apparent MW (kDa) [4] [kDa]	Apparent Molecular Weight Factor [4]	other results
B1	–	–	–	half-life [1]: exceeding 60 h
B2	–	–	–	degradation by neutrophil elastase ([2]; 1:100 molar ratio (elastase:XTEN)): completely digested; degradation by neutrophil elastase ([2]; 1:1000 molar ratio (elastase:XTEN)): Partial degradation; degradation in PBS buffer ([3]; PBS buffer, 7 day incubation at 37° C.): only minor signs of degradation; degradation in rat kidney homogenate ([3]; rat kidney homogenate, 37° C., by the 24 hour interval): rapidly degraded; degradation in rat plasma ([3]; rat plasma, 7 day incubation at 37° C.): only minor signs of degradation
B3	8.2	650	8.5	–
B4	10.1	1900	14.7	–
